Assay results taken from patent publication US20160279215A1, “NOVEL PEPTIDES AND COMBINATION OF PEPTIDES FOR USE IN IMMUNOTHERAPY AGAINST VARIOUS TUMORS” (immatics biotechnologies GmbH, priority 2015, published 2016).

How the values were obtained:
[1] = system: CD8+ T cells of healthy HLA-A*02 donors; assay: In vitro immunogenicity: T-cell priming with aAPCs loaded with peptide/MHC and anti-CD28, pMHC multimer readout; type: cell-based, human; settings: for Wells positive [%]: in vitro immunogenicity, HLA-A*02 restricted peptides, percentage of positive wells among evaluable; for donors: percentage of positive donors; for donors / wells: in vitro immunogenicity of HLA class I peptides; for wells: percentage of positive wells
Excerpt: In order to obtain information regarding the immunogenicity of the TUMAPs of the present invention, the inventors performed investigations using an in vitro T-cell priming assay based on repeated stimulations of CD8+ T cells with artificial antigen presenting cells (aAPCs) loaded with peptide/MHC complexes and anti-CD28 antibody.
In order to perform in vitro stimulations by artificial antigen presenting cells loaded with peptide-MHC complex (pMHC) and anti-CD28 antibody, the inventors first isolated CD8+ T cells from fresh HLA-A*02 leukapheresis products via positive selection using CD8 microbeads (Miltenyi Biotec, Bergisch-Gladbach, Germany) of healthy donors obtained from the University clinics Mannheim, Germany, after informed consent. PBMCs and isolated CD8+ lymphocytes were incubated in T-cell medium (TCM) until use consisting of RPMI-Glutamax (Invitrogen, Karlsruhe, Germany) supplemented with 10% heat inactivated human AB serum (PAN-Biotech, Aidenbach, Germany), 100 U/ml Penicillin/100 μg/ml Streptomycin (Cambrex, Cologne, Germany), 1 mM sodium pyruvate (CC Pro, Oberdorla, Germany), 20 μg/ml Gentamycin (Cambrex). 2.5 ng/ml IL-7 (PromoCell, Heidelberg, Germany) and 10 U/ml IL-2 (Novartis Pharma, Nürnberg, Germany) were also added to the TCM at this step. Generation of pMHC/anti-CD28 coated beads, T-cell stimulations and readout was performed in a highly defined in vitro system using four different pMHC molecules per stimulation condition and 8 different pMHC molecules per readout condition.
The purified co-stimulatory mouse IgG2a anti human CD28 Ab 9.3 (Jung et al., 1987) was chemically biotinylated using Sulfo-N-hydroxysuccinimidobiotin as recommended by the manufacturer (Perbio, Bonn, Germany). Beads used were 5.6 μm diameter streptavidin coated polystyrene particles (Bangs Laboratories, Illinois, USA).
pMHC used for positive and negative control stimulations were A*0201/MLA-001 (peptide […] (SEQ ID NO. 289) from modified Melan-A/MART-1) and A*0201/DDX5-001 ([…] from DDX5, SEQ ID NO. 290), respectively.
800.000 beads/200 μl were coated in 96-well plates in the presence of 4×12.5 ng different biotin-pMHC, washed and 600 ng biotin anti-CD28 were added subsequently in a volume of 200 μl. Stimulations were initiated in 96-well plates by co-incubating […] CD8+ T cells with 2×10^5 washed coated beads in 200 μl TCM supplemented with 5 ng/ml IL-12 (PromoCell) for 3 days at 37° C. Half of the medium was then exchanged by fresh TCM supplemented with 80 U/ml IL-2 and incubating was continued for 4 days at 37° C. This stimulation cycle was performed for a total of three times. For the pMHC multimer readout using 8 different pMHC molecules per condition, a two-dimensional combinatorial coding approach was used as previously described (Andersen et al., 2012) with minor modifications encompassing coupling to 5 different fluorochromes. Finally, multimeric analyses were performed by staining the cells with Live/dead near IR dye (Invitrogen, Karlsruhe, Germany), CD8-FITC antibody clone SK1 (BD, Heidelberg, Germany) and fluorescent pMHC multimers. For analysis, a BD LSRII SORP cytometer equipped with appropriate lasers and filters was used. Peptide specific cells were calculated as percentage of total CD8+ cells. Evaluation of multimeric analysis was done using the FlowJo software (Tree Star, Oreg., USA). In vitro priming of specific multimer+ CD8+ lymphocytes was detected by comparing to negative control stimulations.
Exemplary flow cytometry results after TUMAP-specific multimer staining for 15 peptides of the invention are shown in FIGS. 3 and 6 together with corresponding negative controls.

HLA-A*02:01 [2] = biological target: T1, HLA-A*02:01 (Homo sapiens, UniProt P04439, D140Y/D185E/D98H/E176V/E277Q/G131W/G231S/I119V/I121R/I166T/I218V/L300P/L318F/N151K/N90K/P208A/P217A/Q86G/Q94H/R138H/R169H/T345S); assay: MHC binding assay: UV-ligand exchange with β2m ELISA (peptide exchange yield); settings: binding to HLA-A*02:01 evaluated by peptide exchange yield (UV-ligand exchange, β2m ELISA)
T1 construct: made in house
In short: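 Peptide–MHC complexes formed by UV-ligand exchange, cleaving a UV-sensitive peptide so the test peptide can bind. Exchange yield measured by ELISA: complexes captured on streptavidin-coated wells, diluted 100-fold, detected with HRP anti-β2m (1 h, 37 °C) and TMB at 450 nm, against refolded HLA-A*02:01/MLA-001 standards (15-500 ng/ml).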

HLA-A*02:01 [3] = biological target: T2, HLA-A*02:01 (human); assay: UV ligand-exchange ELISA (anti-b2m); ++ = exchange yield >=20%
T2 construct: MHC monomers captured on streptavidin plates; the UV-sensitive peptide is cleaved and exchanged with the test peptide; also called peptide-receptive MHC molecules; MHC class I
Excerpt: Candidate peptides for T cell based therapies according to the present invention were further tested for their MHC binding capacity (affinity). The individual peptide-MHC complexes were produced by UV-ligand exchange, where a UV-sensitive peptide is cleaved upon UV-irradiation, and exchanged with the peptide of interest as analyzed. Only peptide candidates that can effectively bind and stabilize the peptide-receptive MHC molecules prevent dissociation of the MHC complexes. To determine the yield of the exchange reaction, an ELISA was performed based on the detection of the light chain (β2m) of stabilized MHC complexes. The assay was performed as generally described in Rodenko et al. (Rodenko et al., 2006).
96 well MAXISorp plates (NUNC) were coated over night with 2 ug/ml streptavidin in PBS at room temperature, washed 4× and blocked for 1 h at 37° C. in 2% BSA containing blocking buffer. Refolded HLA-A*02:01/MLA-001 monomers served as standards, covering the range of 15-500 ng/ml. Peptide-MHC monomers of the UV-exchange reaction were diluted 100 fold in blocking buffer. Samples were incubated for 1 h at 37° C., washed four times, incubated with 2 ug/ml HRP conjugated anti-β2m for 1 h at 37° C., washed again and detected with TMB solution that is stopped with […]. Absorption was measured at 450 nm. Candidate peptides that show a high exchange yield (preferably higher than 50%, most preferred higher than 75%) are generally preferred for a generation and production of antibodies or fragments thereof, and/or T cell receptors or fragments thereof, as they show sufficient avidity to the MHC molecules and prevent dissociation of the MHC complexes.

| Molecule | peptide exchange yield (HLA-A*02:01 [3]) | other results |
| --- | --- | --- |
| 117 (TLLEGISRA; listed as Homo sapiens) [compound 117] | – | Wells positive [%] [1]: ++ (20%-49% = ++); Peptide exchange (HLA-A*02:01 [2]): ++ (≧20% = ++) |
| 29 (KMISAIPTL; listed as Homo sapiens) [compound 29] | – | Wells positive [%] [1]: + (<20% = +); Peptide exchange (HLA-A*02:01 [2]): ++ (≧20% = ++) |
| 17 (GLLPSAESIKL; listed as Homo sapiens) [compound 17] | – | Wells positive [%] [1]: + (<20% = +); Peptide exchange (HLA-A*02:01 [2]): ++++ (≧75% = ++++) |
| 48 (KISDFGLATV; listed as Homo sapiens) [compound 48] | – | Wells positive [%] [1]: ++ (20%-49% = ++); Peptide exchange (HLA-A*02:01 [2]): +++ (≧50 = +++) |
| 264 (TLHDQVHLL; listed as Homo sapiens) [compound 264] | – | Wells positive [%] [1]: + (<20% = +); Peptide exchange (HLA-A*02:01 [2]): ++ (≧20% = ++) |
| 102 (GLYPVTLVGV; listed as Homo sapiens) [compound 102] | – | Wells positive [%] [1]: + (<20% = +); Peptide exchange (HLA-A*02:01 [2]): +++ (≧50 = +++) |
| 236 (KMSELQTYV; listed as Homo sapiens) [compound 236] | – | Wells positive [%] [1]: + (<20% = +); Peptide exchange (HLA-A*02:01 [2]): +++ (≧50 = +++) |
| 246 (ALAGIVTNV; listed as Homo sapiens) [compound 246] | – | Wells positive [%] [1]: + (<20% = +); Peptide exchange (HLA-A*02:01 [2]): +++ (≧50 = +++) |
| 97 (KLFEKSTGL; listed as Homo sapiens) [compound 97] | – | Wells positive [%] [1]: + (<20% = +); Peptide exchange (HLA-A*02:01 [2]): +++ (≧50 = +++) |
| 287 (KIQEILTQV; listed as Homo sapiens) [compound 287] | – | donors [1]: +++ (50%-69% = +++); wells [1]: + (<20% = +) |
| 288 (SLYKGLLSV; listed as Homo sapiens) [compound 288] | – | donors [1]: ++++ (>= 70% = ++++); wells [1]: ++ (21%-49% = ++) |
| TLDRNSLYV | 20 to 50% | – |
| VIIKGLEEI | 20 to 50% | – |
| QIVELIEKI | 20 to 50% | – |
| VLQQESNFL | 20 to 50% | – |
| KQMSISTGL | 20 to 50% | – |
| KLIGNIHGNEV | 20 to 50% | – |
| LDSEALLTL | 20 to 50% | – |
| TIGIPFPNV | 20 to 50% | – |
| TLYPGRFDYV | 20 to 50% | – |

| Molecule | peptide exchange yield (HLA-A*02:01 [3]) | other results |
| --- | --- | --- |
| SLYAGSNNQV | 20 to 50% | – |
| SLSEKSPEV | 20 to 50% | – |
| AMFPDTIPRV | 20 to 50% | – |
| LKVLKADVVL | 20 to 50% | – |
| GLTEKTVLV | 20 to 50% | – |
| HMSGKLTNV | 20 to 50% | – |
| VLSTRVTNV | 20 to 50% | – |
| GLAFLPASV | 20 to 50% | – |
| TVLEEIGNRV | 20 to 50% | – |
| ILAEEPIYI | 20 to 50% | – |
| GLLENSPHL | 20 to 50% | – |
| KLLDKPEQFL (also called FMN1-001) | 20 to 50% | – |
| AILNVDEKNQV | 20 to 50% | – |
| LLPSIFLMV | 20 to 50% | – |
| RLYGYFHDA | 20 to 50% | – |
| ALDTTRHEL | 20 to 50% | – |
| YLADTVQKL | 20 to 50% | – |
| AMLASQTEA | 20 to 50% | – |
| VLLGSVVIFA | 20 to 50% | – |
| RVLPGQAVTGV | 20 to 50% | – |
